Reference: US20030148956A1 (PROCTER AND GAMBLE, published 2003)
Ends that are not written are not given here.

T1: corticotropin releasing factor 2 receptor
T1 sequence (Q13324 whole entry, species assumed, looked up): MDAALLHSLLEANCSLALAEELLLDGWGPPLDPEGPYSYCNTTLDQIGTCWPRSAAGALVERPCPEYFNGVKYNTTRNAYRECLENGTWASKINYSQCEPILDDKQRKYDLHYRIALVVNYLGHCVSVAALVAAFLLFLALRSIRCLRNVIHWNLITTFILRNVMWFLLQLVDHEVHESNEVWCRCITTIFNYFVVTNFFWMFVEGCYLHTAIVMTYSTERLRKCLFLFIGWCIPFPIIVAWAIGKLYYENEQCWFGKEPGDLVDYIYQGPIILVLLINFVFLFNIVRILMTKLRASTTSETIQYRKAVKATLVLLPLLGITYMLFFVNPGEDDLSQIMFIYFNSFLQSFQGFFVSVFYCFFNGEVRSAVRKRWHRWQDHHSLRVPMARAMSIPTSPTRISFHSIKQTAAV


target: T1, corticotropin releasing factor 2 …; assay: cell-based or functional assay

| Binder | CRF2R EC50 [nM] | CRF2R Emax % [%] |
| --- | --- | --- |
| DNPSLSIDLPLLLLRTLLELEKTQSQRERAEQNAEIFAEV-NH2 [SEQ ID NO 323] | 19.6 | 100 |
| DNPSLSIDLPQYLLRTLLELARTQSQRERAEQNAIIFASV-NH2 [SEQ ID NO 339] | 100 | 47.9 |
| DNPSLSIDLPLFLLRTLLELARTQSQRERAEQNARIFARV-NH2 [SEQ ID NO 329] | 5.15 | 98.3 |
| PSLSIDLPLILLRTLLELEKTQSQRERAEQNARIFARV-NH2 [SEQ ID NO 332] | 9.95 | 100 |
| DNPSLSIDLPLFLLRTLLELEKTQSQRERAEQNAIIFASV-NH2 [SEQ ID NO 343] | 13.6 | 96.5 |
| DNPSLSIDLPLLLLRTLLELEKTQSQRERAEQNAHIFAHV-NH2 [SEQ ID NO 328] | 11.7 | 95.7 |
| DNPSLSIDLPLLLLRTLLELEKTQSQRERAEQNANIFANV-NH2 [SEQ ID NO 326] | 33.7 | 100 |
| Ac-IVLSLDVPIGLLQILLEQARARAAREQATTNARILARV-NH2 [SEQ ID NO 354] | 6.48 | 100 |
| Ac-PSLSIDLPLLLLRTLLELEKTQSQRERAEQNAIIFASV-NH2 [SEQ ID NO 348] | 5.77 | – |
| DNPSLSIDLPLLLLRTLLELEKTQSQRERAEQNAQIFAHV-NH2 [SEQ ID NO 324] | 17.2 | 100 |
| PSLSIDLPLFLLRTLLELEKTQSQRERAEQNARIFARV-NH2 [SEQ ID NO 331] | 9.85 | 100 |
| ZGPPISIDLPFQLLRKTIEIEKQEKEKQQATTNARLLDRV (C-terminal amide) [SEQ ID NO 321] | 19.6 | 86.8 |
| ZGPPISIDLPLYLLRKMIEIEKQEKEKQQATTNARILARV (C-terminal amide) [SEQ ID NO 353] | 4.75 | 89.9 |
| ZGPPISIDLPFQLLRKVIEIEKQEKEKQQATTNARLLDRV (C-terminal amide) [SEQ ID NO 351] | 12.9 | 97.4 |
| DNPSLSIDLPLLLLRTLLELARTQSQRERAEQNARIFARV-NH2 [SEQ ID NO 340] | 7.99 | 100 |
| DNPSLSIDLPLQLLRTLLELEKTQSQRERAEQNAIIFASV-NH2 [SEQ ID NO 342] | 20.2 | 92.2 |
| DNPSLSIDLPLILLRTLLELEKTQSQRERAEQNAIIFASV-NH2 [SEQ ID NO 345] | 39.7 | 100 |
| DNPSLSIDLPLILLRTLLELARTQSQRERAEQNARIFARV-NH2 [SEQ ID NO 330] | 6 | 93.7 |
| DNPSLSIDLPLLLLRTLLELEKTQSQRERAEQNARIFARV-NH2 [SEQ ID NO 341] | 8.83 | 95.5 |

| Binder | CRF2R EC50 [nM] | CRF2R Emax % [%] |
| --- | --- | --- |
| PSLSIDLPLLLLRTLLELEKTQSQRERAEQNAIIFASV-NH2 [SEQ ID NO 344] | 4.3 | – |
| DNPSLSIDLPLFLLRTLLELEKTQSQRERAEQNARIFARV-NH2 [SEQ ID NO 334] | 13.2 | 93.5 |
| PSLSIDLPLLLLRTLLELEKTQSQRERAEQNARIFARV-NH2 [SEQ ID NO 333] | 9.85 | 96.9 |
| DNPSLSIDLPLILLRTLLELEKTQSQRERAEQNARIFARV-NH2 [SEQ ID NO 335] | 28.1 | 91 |
| DNPSLSIDLPLLLLRTLLELEKTQSQRERAEQNARIFDRV-NH2 [SEQ ID NO 338] | 19.3 | 77.5 |
| IVLSLDVPIGLLQILLEQEKARAAREQATTNARILARV-NH2 [SEQ ID NO 325] | 11.7 | 100 |
| IVLSLDVPIGLLQILLEQARARAAREQATTNARILARVM-NH2 [SEQ ID NO 356] | 83 | – |
| DNPSLSIDLPLLLLRTLLELEKTQSQRERAEQNAIIFASV-NH2 [SEQ ID NO 346] | 8.48 | – |
| Ac-DNPSLSIDLPLLLLRTLLELEKTQSQRERAEQNAIIFASV-NH2 [SEQ ID NO 347] | 22.4 | – |
| DNPSLSIDLPLILLRTLLELEKTQSQRERAEQNARIFDRV-NH2 [SEQ ID NO 337] | 23.9 | 86.7 |
| DNPSLSIDLPLFLLRTLLELEKTQSQRERAEQNARIFDRV-NH2 [SEQ ID NO 336] | 17.8 | 100 |
| DNPSLSIDLPLLLLRTLLELEKTQSQRERAEQNAQIFAQV-NH2 [SEQ ID NO 327] | 28.4 | 100 |
| ZGPPISIDLPLQLLRKVIEIEKQEKEKQQAANNALLLATI (C-terminal amide) [SEQ ID NO 349] | 13.8 | 100 |
| ZGPPISIDLPFQLLRKVIEIEKQEKEKQQAANNALLLDTI (C-terminal amide) [SEQ ID NO 350] | 11.6 | 98.1 |
| ZGPPISIDLPFQLLRKLIEIEKQEKEKQQAANNALLLATI (C-terminal amide) [SEQ ID NO 357] | 6.44 | 100 |
| ZGPPISIDLPFQLLRKVIEIEKQEKEKQQAANNALLLATI (C-terminal amide) [SEQ ID NO 352] | 8.26 | 83.7 |
| ZGPPISIDLSLELLRKMIEIEKQEKEKQQAANNRLLLDTI (C-terminal amide) [SEQ ID NO 355] | 6.03 | 95 |
| IVLSLDVPIGLLQKMIEIEKQEKEKQQATTNARILARV-NH2 [SEQ ID NO 322] | 23.1 | 96.5 |

target: corticotropin releasing factor 1 receptor; assay: cell-based or functional assay

| Binder | CRF1R EC50 [nM] | CRF1R Emax % [%] |
| --- | --- | --- |
| DNPSLSIDLPLLLLRTLLELEKTQSQRERAEQNAEIFAEV-NH2 [SEQ ID NO 323] | 1000 | 36.9 |
| DNPSLSIDLPQYLLRTLLELARTQSQRERAEQNAIIFASV-NH2 [SEQ ID NO 339] | 1000 | 13.2 |
| DNPSLSIDLPLFLLRTLLELARTQSQRERAEQNARIFARV-NH2 [SEQ ID NO 329] | 1000 | 98.4 |
| PSLSIDLPLILLRTLLELEKTQSQRERAEQNARIFARV-NH2 [SEQ ID NO 332] | 1000 | 61.3 |
| DNPSLSIDLPLFLLRTLLELEKTQSQRERAEQNAIIFASV-NH2 [SEQ ID NO 343] | 783 | 62.5 |
| DNPSLSIDLPLLLLRTLLELEKTQSQRERAEQNAHIFAHV-NH2 [SEQ ID NO 328] | 1000 | 30.7 |
| DNPSLSIDLPLLLLRTLLELEKTQSQRERAEQNANIFANV-NH2 [SEQ ID NO 326] | 1000 | 30.1 |
| Ac-IVLSLDVPIGLLQILLEQARARAAREQATTNARILARV-NH2 [SEQ ID NO 354] | 1000 | 13.4 |
| Ac-PSLSIDLPLLLLRTLLELEKTQSQRERAEQNAIIFASV-NH2 [SEQ ID NO 348] | 630 | – |
| DNPSLSIDLPLLLLRTLLELEKTQSQRERAEQNAQIFAHV-NH2 [SEQ ID NO 324] | 1000 | 46.6 |
| PSLSIDLPLFLLRTLLELEKTQSQRERAEQNARIFARV-NH2 [SEQ ID NO 331] | 1000 | 78.7 |
| ZGPPISIDLPFQLLRKTIEIEKQEKEKQQATTNARLLDRV (C-terminal amide) [SEQ ID NO 321] | 1000 | 33.8 |
| ZGPPISIDLPLYLLRKMIEIEKQEKEKQQATTNARILARV (C-terminal amide) [SEQ ID NO 353] | 230 | 92.2 |
| ZGPPISIDLPFQLLRKVIEIEKQEKEKQQATTNARLLDRV (C-terminal amide) [SEQ ID NO 351] | 1000 | 85.7 |
| DNPSLSIDLPLLLLRTLLELARTQSQRERAEQNARIFARV-NH2 [SEQ ID NO 340] | 740 | 96 |
| DNPSLSIDLPLQLLRTLLELEKTQSQRERAEQNAIIFASV-NH2 [SEQ ID NO 342] | 1000 | 19.6 |
| DNPSLSIDLPLILLRTLLELEKTQSQRERAEQNAIIFASV-NH2 [SEQ ID NO 345] | 1000 | 18.8 |
| DNPSLSIDLPLILLRTLLELARTQSQRERAEQNARIFARV-NH2 [SEQ ID NO 330] | 1000 | 86.8 |
| DNPSLSIDLPLLLLRTLLELEKTQSQRERAEQNARIFARV-NH2 [SEQ ID NO 341] | 850 | 82.3 |

| Binder | CRF1R EC50 [nM] | CRF1R Emax % [%] |
| --- | --- | --- |
| PSLSIDLPLLLLRTLLELEKTQSQRERAEQNAIIFASV-NH2 [SEQ ID NO 344] | 650 | – |
| DNPSLSIDLPLFLLRTLLELEKTQSQRERAEQNARIFARV-NH2 [SEQ ID NO 334] | 1000 | 82.6 |
| PSLSIDLPLLLLRTLLELEKTQSQRERAEQNARIFARV-NH2 [SEQ ID NO 333] | 1000 | 43.8 |
| DNPSLSIDLPLILLRTLLELEKTQSQRERAEQNARIFARV-NH2 [SEQ ID NO 335] | 1000 | 49.5 |
| DNPSLSIDLPLLLLRTLLELEKTQSQRERAEQNARIFDRV-NH2 [SEQ ID NO 338] | 1000 | 41.1 |
| IVLSLDVPIGLLQILLEQEKARAAREQATTNARILARV-NH2 [SEQ ID NO 325] | 100 | 5 |
| IVLSLDVPIGLLQILLEQARARAAREQATTNARILARVM-NH2 [SEQ ID NO 356] | 1000 | – |
| DNPSLSIDLPLLLLRTLLELEKTQSQRERAEQNAIIFASV-NH2 [SEQ ID NO 346] | 1000 | – |
| Ac-DNPSLSIDLPLLLLRTLLELEKTQSQRERAEQNAIIFASV-NH2 [SEQ ID NO 347] | 1000 | – |
| DNPSLSIDLPLILLRTLLELEKTQSQRERAEQNARIFDRV-NH2 [SEQ ID NO 337] | 1000 | 36.5 |
| DNPSLSIDLPLFLLRTLLELEKTQSQRERAEQNARIFDRV-NH2 [SEQ ID NO 336] | 1000 | 59.9 |
| DNPSLSIDLPLLLLRTLLELEKTQSQRERAEQNAQIFAQV-NH2 [SEQ ID NO 327] | 1000 | 36.5 |
| ZGPPISIDLPLQLLRKVIEIEKQEKEKQQAANNALLLATI (C-terminal amide) [SEQ ID NO 349] | 1000 | 44.2 |
| ZGPPISIDLPFQLLRKVIEIEKQEKEKQQAANNALLLDTI (C-terminal amide) [SEQ ID NO 350] | 1000 | 48 |
| ZGPPISIDLPFQLLRKLIEIEKQEKEKQQAANNALLLATI (C-terminal amide) [SEQ ID NO 357] | 331 | 100 |
| ZGPPISIDLPFQLLRKVIEIEKQEKEKQQAANNALLLATI (C-terminal amide) [SEQ ID NO 352] | 780 | 82.6 |
| ZGPPISIDLSLELLRKMIEIEKQEKEKQQAANNRLLLDTI (C-terminal amide) [SEQ ID NO 355] | 18 | 100 |
| IVLSLDVPIGLLQKMIEIEKQEKEKQQATTNARILARV-NH2 [SEQ ID NO 322] | 1000 | 10.7 |
